Measurements as given in patent publication US4608364A, “Pharmaceutical agent for the treatment of diabetes mellitus” (Hoechst Aktiengesellschaft, priority 1983, dated 1986).

Key:
[1] = Biological activity of insulins and insulin derivatives; conditions: specific activity of the active compound used in the formulation
[2] = unmodified hormone, background statement; region of maximum insolubility; cited from earlier work
[3] = based on the amount of protein; cited from earlier work

| Substance | biological activity per mg [1] [IU/mg] | isoelectric point [2] | inherent biological activity as fraction of the activity of insulin [3] |
| --- | --- | --- | --- |
| Porcine proinsulin: porcine proinsulin, dissolved component of Example 2 | 3.3 |  |  |
| insulin [reference compound] |  | 5.4 |  |
| proinsulin: naturally occurring precursor of insulin, A and B chain linked by the C peptide |  | 5.4 | about 1/8 |
